From patent US20110245153A1

What was measured:
[1] = biological target: toxic shock syndrome toxin-1 (TSST-1), Staphylococcus aureus superantigen peptide; assay: soluble, other
[2] = biological target: staphylococcal enterotoxin B (SEB), Staphylococcus aureus superantigen peptide; assay: fusion: Aga2 (yeast display)

Substance	Kd [1] [nM]	Kd [2] [nM]
wild type hVβ2.1	2300	–
EGIGYITK	–	5
